According to article PMC3126804:

How the values were obtained:
[1] = molecular target: Listeria adhesion protein (LAP), full-length (Listeria monocytogenes); test: ELISA; called immunofluorescence assay in microtiter plates: LAP proteins immobilised at 62.5–500 ng/100 µL (0.05 M sodium carbonate, pH 9.6) in Immulon 4HBX plates; Hsp60 100 µL of 2.4 µg/mL, RT 1.5 h; anti-Hsp60, HRP anti-mouse, fluorescent substrate Super Red; controls subtracted; KD from the 1-site binding equation (Prism 3)
[2] = molecular target: LAP subdomain N2 (Gly224–Gly411) (Listeria monocytogenes (strain F4244)); test: as above
[3] = molecular target: heat shock protein 60 (Hsp60) on human ileocecal epithelial HCT-8 cells (human (endogenous in HCT-8)) (UniProt P10809); test: adhesion of protein-coated fluospheres to cell monolayers; sulphate-modified fluospheres (1.0 µm) coated with 160 µg/mL of each purified protein (average bound 140 µg/ml) or 0.1% BSA, added to confluent HCT-8 monolayers (cells to spheres about 1:100), 2 h at 37°C, washed five times, read at 485/538 nm; also after pretreatment of cells with anti-Hsp60 MAb (1 µg/well, 1 h)
[4] = molecular target: heat shock protein 60 (Hsp60) on human ileocecal epithelial HCT-8 cells (human (endogenous in HCT-8)) (UniProt P10809); test: adhesion of protein-coated fluospheres to cell monolayers; as the fluosphere assay on HCT-8 monolayers, but protein concentrations adjusted to have an equal number of molecules of each protein before immobilising on beads

| Substance | Kd [1] [nM] | Kd [2] [nM] | mean fluorescence unit (fluorescence unit) [3] | mean fluorescence unit (fluorescence unit) [4] |
| --- | --- | --- | --- | --- |
| heat shock protein 60 (Hsp60), purified (from UniProt P10809 27-573) (natural protein) | 7.17 | 9.51 | – | – |
| LAP subdomain N2 (Gly224–Gly411) (domain or fragment) | – | – | 1400 | 1360 |
| Listeria adhesion protein (LAP), full-length (natural protein) | – | – | 999 | 1380 |
